Article PMC3102065, “The Hexameric Structures of Human Heat Shock Protein 90” (PLoS ONE, 2011)
Several values for one entry are separate records, joined by “and”; a condition that tells them apart may be missing. Identical values can stand only once.

B1: MC-HSP90 W320A (domain or fragment)
chain: not shown
notes: two extra Ala residues encoded after the Factor Xa cleavage site (made on the plasmid pGEX-6p-1-MC-HSP90); human heat shock protein 90α, residues 293-732, with W320A; also called mutant W320A; mutant protein W320A of MC-HSP90; source: E. coli BL21 (DE3), expressed and purified as the wild-type MC-HSP90; not shown: GST, N-terminal, cleaved
B2: MC-HSP90 (N-terminal truncated human HSP90α, middle segment and carboxy-terminal domain, residues 293–732) (domain or fragment)
chain: not shown
notes: two extra Ala residues encoded after the Factor Xa cleavage site; found at the N-terminus by MALDI-MS of the dissolved crystal; human heat shock protein 90α, residues 293-732 (M and C domains), from a full length cDNA (NM_005348.2; 732 residues); In solution a mixture of dimer, tetramer and hexamer; The reverse primer encodes six His after the last residue; also called truncated HSP90; wild-type …
B3: MC-HSP90-Ct (human HSP90α residues 293–697, C-terminal 35 residues also truncated) (domain or fragment)
chain: not shown
notes: two extra Ala residues encoded after the Factor Xa cleavage site (same forward primer as MC-HSP90); human heat shock protein 90α, residues 293-697; Purified by a protocol similar to that of MC-HSP90; The reverse primer printed for this construct appears to encode eight His; also called C-terminal tail truncated MC-HSP90-Ct; source: E. coli BL21 (DE3), purified (Ni-NTA, Factor Xa cleavage, second …)

How the values were obtained:
[1] = molecular target: the molecule itself; experiment: AUC; sedimentation velocity of fractions from the S-300 column, 0.3 mg/ml in 100 mM Tris-HCl, 45,000 rpm, 20°C, c(s) distribution (SEDFIT)
[2] = molecular target: the molecule itself; experiment: crystal structure; MC-HSP90 in three crystal forms (C222_1 with cis-DEP, P2_1 with cisplatin, R32 with Silver Bullets No. 18); 2.5 M ammonium sulfate, 0.1 M tri-sodium citrate pH 5.4-5.8; molecular replacement
[3] = molecular target: the molecule itself; experiment: crystal structure; MC-HSP90-Ct, P6_322 crystal; 2.6 M ammonium sulfate, 0.1 M tri-sodium citrate pH 5.0, Silver Bullets No. 70; molecular replacement

Protein	stoichiometry N [1]	stoichiometry N [2]	stoichiometry N [3]
B1	6 and 2 and 4		
B2	2 and 4	6	
B3			6
